Measured values: the supplement of paper PMC10567573
± gives the standard deviation.

Test: protein stability index of a GFP-peptide fusion (GPS, HEK-293T) (PSI 1-6); higher = more stable
Conditions: c terminus: a fixed tail appended
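Note: 24-mer peptide tiles fused after GFP, lentivirally expressed, FACS-sorted into six equal bins by GFP/DsRed ratio, decoded by Illumina sequencing, PSI is the read-weighted mean bin number.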

Sequence	protein stability index (treatment: DMSO)	protein stability index (treatment: MLN4924 1 uM, 8 h)
LKTLEEGLEGLEDAPPVELQLLHE [FANCE]	4.81 ± 0.26	4.91 ± 0.38
LLCAVCYDPFRDAVTLRCGHNFCR [TRIM35]	2.38 ± 0.23	2.46 ± 0.29
LLDKAGVPPGVVNIVFGTGPRVGE [ALDH8A1]	2.53 ± 0.16	2.76 ± 0.51
LLELAGEVTDTGDPIVRPLWWIAP [MYORG]	2.46 ± 0.21	2.43 ± 0.24
LLEQAGSLKGSLSVEEQLSLISGC [CRYL1]	2.98 ± 0.32	3.2 ± 0.39
LLFACSPPPASQPVVKALFGASAA [CDC25A]	2.44 ± 0.12	2.35 ± 0.12
LLGALVLLGLGVLLFSGGLSESET [PBXIP1]	2.29 ± 0.77	2.47 ± 0.89
LLGATKRSMVFKDVLLLGNDYIVP [HNF4A]	2.28 ± 0.34	2.3 ± 0.11
LLHNDEYQETMVESTFMYLTLDLP [USP39]	2.31 ± 0.29	2.29 ± 0.34
LLKRIKKCCGMRNTDVSMENMVTV [KCNK9]	2.22 ± 0.52	2.32 ± 0.25
LLKSHTNVLSVNLPDNFTLKEDGM [TPH1]	3.15 ± 0.24	3.22 ± 0.34
LLKTEALKRQAQEEAKGALLGTSG [DAPK3]	4.89 ± 0.15	4.47 ± 0.12
LLTSPRAINNLVLQGCSSIGLRLV [KLHL14]	2.92 ± 0.53	2.74 ± 0.69
LLVGAAVFDALESDHEMREEEKLK [KCNK9]	4.26 ± 0.34	4.29 ± 0.24
LMFFIMAAMLSMVKYNSCADRPFS [POMT2]	3.19 ± 0.7	3.06 ± 0.32
LMMRGVKHHNLEGLRKRIATLFFH [IQUB]	2.34 ± 0.62	2.52 ± 0.7
LMSYERRQILHLITMMALKVLGEL [TENT5D]	2.67 ± 0.24	2.39 ± 0.31
LNGDYGENIYPYEEDKDEKSSIYE [MIA2]	3.78 ± 0.7	3.94 ± 0.72
LNKLYPTHACREYLKNLPLLSKYC [TPH1]	2.41 ± 0.45	2.23 ± 0.46
LPEKACQLDSRYWRITNAKGDVEE [FBXO3]	4.47 ± 0.11	4.49 ± 0.52
LPGGTTGLQLPSTLPVSGNLLDVY [TFE3]	3.24 ± 0.31	3.23 ± 0.17
LPLGIKVYEDETKVVHAVDGTAEN [PALM]	5.02 ± 0.17	5.03 ± 0.23
LQLYFWKDREFHELQGDFSVPDVP [VPS39]	2.02 ± 0.46	2.17 ± 0.22

Sequence	protein stability index (treatment: DMSO)	protein stability index (treatment: MLN4924 1 uM, 8 h)
LQREKEFKAKEAAALGSRGSCSTE [ATP6V1G1]	5.12 ± 0.14	5.1 ± 0.48
LQTLRSFSHTLVSLSLFGCTNIFY [ZER1]	2.26 ± 0.35	3.67 ± 1.3
LQVIKALKSSGLCESLTYGLPFIL [M1AP]	3.04 ± 0.94	2.81 ± 0.83
LRARNYEYLIRLFQEWEAHRNLSQ [TCF25]	2.13 ± 0.38	2.18 ± 0.35
LRGKFKRPPLRRVRMSADAMLKAL [TNNI2]	2.25 ± 0.46	2.4 ± 0.14
LRRGHPAGGEENMTETDAFYKREM [CASP6]	4.9 ± 0.2	4.43 ± 0.84
LRRRIENGAKELWFFLQSELKKLK [FUT8]	2.85 ± 0.43	2.52 ± 0.4
LRVRELQRKVDGIQKAYDELRLQS [CCDC89]	3.16 ± 0.13	3.42 ± 0.39
LSDSGAFRRSLHDPDGLVATYISE [APMAP]	4.12 ± 0.2	4.02 ± 0.23
LSGVSCFVMFLCLADYLVPILAPR [ARL6IP1]	3.5 ± 0.071	3.37 ± 0.44
LSGVSQLLPKSRENYLNRCMDQER [FCHO1]	3.78 ± 0.21	3.95 ± 0.14
LSLFVQKLGNLMSLDISGHMILEN [ZER1]	3.24 ± 0.06	3.42 ± 0.48
LTEDMYAQDSIELLTTSGIQFKKH [CNOT7]	3.93 ± 0.23	4.09 ± 0.32
LTGTESPFDLEQQWQDLMSIMEMQ [NFE2L1]	3.95 ± 0.23	3.88 ± 0.47
LTPHIVQYQANKVTHTLTMRQRIS [PPEF2]	2.89 ± 0.28	3 ± 0.17
LTQLHRLSLESSPDAPDHTSETSH [PLEKHN1]	5.23 ± 0.32	5.22 ± 0.21
LTTKDYMEMYNVIMTVKEDQFSAL [SLC6A17]	2.37 ± 0.39	2.38 ± 0.29
LTVAKCWDPSPRGCFTLPRSEPIR [DVL3]	2.43 ± 0.37	2.62 ± 0.23
LVEAVLSGEVLNGAAVVRPPGHHA [HDAC6]	2.27 ± 0.2	2.27 ± 0.34
LVGDRDVGKSEILESLQDGAAESP [RAB40A]	5.57 ± 0.17	5.48 ± 0.21
LVHHRAAHSNEILIFSVQPKSLVR [KLHDC2]	2.45 ± 0.31	2.21 ± 0.24
LVLLRDGRTLIGFLRSIDQFANLV [LSM1]	2.23 ± 0.52	2.47 ± 0.47
